In publication PMC6204840:

Columns and labels:
[1] = molecular target: soluble human neonatal Fc receptor (FcRn alpha chain extracellular domain + beta2-microglobulin) (UniProt P55899+P61769); experiment: SPR; conditions: pH 6.0, PBS (concentration not stated), adjusted to pH 6.0 or pH 7.4
[2] = molecular target: motavizumab IgG1 with wild type Fc (human); experiment: SPR
[3] = molecular target: motavizumab IgG1 with Fc variant DF213 (human); experiment: SPR
[4] = molecular target: motavizumab IgG1 with Fc variant DF197 (human); experiment: SPR
[5] = molecular target: motavizumab IgG1 with Fc variant DF215 (human); experiment: SPR
[6] = molecular target: motavizumab IgG1 with Fc variant DF183 (human); experiment: SPR
[7] = molecular target: Fcγ receptor IIIa (V176 or F176, not told which) (UniProt P08637); experiment: ELISA
Chain of UniProt P08637 (P08637 17-208): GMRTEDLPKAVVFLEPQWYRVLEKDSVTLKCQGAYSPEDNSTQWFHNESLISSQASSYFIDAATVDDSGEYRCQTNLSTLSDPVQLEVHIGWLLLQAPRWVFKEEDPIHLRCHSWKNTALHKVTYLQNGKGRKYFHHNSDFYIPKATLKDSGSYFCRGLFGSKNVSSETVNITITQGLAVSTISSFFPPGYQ

[8] = molecular target: Fcγ receptor IIIa (V176 or F176, not told which) (UniProt P08637)
[9] = molecular target: recombinant cynomolgus monkey FcRn (cynomolgus monkey) (UniProt Q8SPV9); experiment: BLI
Chain of UniProt Q8SPV9 (Q8SPV9 24-297, chain 1 of 2): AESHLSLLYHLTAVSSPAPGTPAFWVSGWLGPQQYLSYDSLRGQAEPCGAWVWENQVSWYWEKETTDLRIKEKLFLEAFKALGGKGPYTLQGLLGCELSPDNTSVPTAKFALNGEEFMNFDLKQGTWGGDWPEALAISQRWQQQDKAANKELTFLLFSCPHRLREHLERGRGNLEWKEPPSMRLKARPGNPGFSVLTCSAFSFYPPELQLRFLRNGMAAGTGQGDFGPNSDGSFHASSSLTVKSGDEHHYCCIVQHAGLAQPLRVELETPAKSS
Chain of UniProt Q8SPV9 (Q8SPW0 21-119, chain 2 of 2, further chain): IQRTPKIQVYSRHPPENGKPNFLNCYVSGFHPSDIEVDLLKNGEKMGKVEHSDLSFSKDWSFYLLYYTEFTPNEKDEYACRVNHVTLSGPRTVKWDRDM

Substance	ka [1]	kd [1]	EC50 [7]	ADCC EC50 (ADCC Reporter Bioassay, rituximab Fab, WIL2-S cells) [8]	also measured
motavizumab IgG1 DF183 T256D;Q311V;A378V	1.93e+06 M⁻¹ s⁻¹	0.0402 s⁻¹			
recombinant human FcRn heterodimer (α-FcRn extracellular domain with β2M) (from UniProt P55899 24-297; P61769 21-119) (complex)					Kd [2]: 0.825 µM; Kd [3]: 0.024 µM; Kd [4]: 0.021 µM; Kd [5]: 0.019 µM; Kd [6]: 0.021 µM
rituximab IgG1 with Fc variant DF215 (antibody)			0.142 µM	2.73 ng/mL	
motavizumab IgG1 DF215 T307Q;Q311V;A378V	1.37e+06 M⁻¹ s⁻¹	0.027 s⁻¹			
motavizumab IgG1 DF197 H285N;T307Q;N315D	1.59e+06 M⁻¹ s⁻¹	0.0328 s⁻¹			
rituximab IgG1 with Fc variant DF183 (antibody)			0.0872 µM	3.92 ng/mL	
motavizumab with wild type human IgG1 Fc (antibody)					Kd [9]: 0.0137 µM
rituximab IgG1 with Fc variant LS (antibody)			0.192 µM		
motavizumab IgG1 DF228 T256D;H286D (as printed; probably N286D);T307R;Q311V;A378V	1.39e+06 M⁻¹ s⁻¹	0.0142 s⁻¹			

Further lines, with some results ahead:

ka [1]	kd [1]	EC50 [7]	ADCC EC50 (ADCC Reporter Bioassay, rituximab Fab, WIL2-S cells) [8]	Substance	also measured
		0.537 µM		rituximab IgG1 with wild type Fc (antibody)	
800000 M⁻¹ s⁻¹	0.0192 s⁻¹			motavizumab IgG1 DF213 H285D;T307Q;A378V	
		1.01 µM	15 ng/mL	rituximab IgG1 with Fc variant YTE (antibody)	
		0.0974 µM	8.3 ng/mL	rituximab IgG1 with Fc variant DF197 (antibody)	
		0.139 µM	4.01 ng/mL	rituximab IgG1 with Fc variant DF213 (antibody)	
		0.154 µM	2.66 ng/mL	rituximab IgG1 with Fc variant DF228 (antibody)	
